To fix the notation:
B1: biotin-V21H4 (biotinylated AB1 antibody, SEQ ID NO:6) (VHH)
VHH: QVQLVESGGGLVQAGGSLRLSCAASGRAFSSYAMGWFRQAPGKERELVAAISWSDDSTYYANSVKGRFTISRDNAKSAVYLQMNSLKPEDTAVYYCAAHKSLQRPDEYTYWGQGTQVTVSS
notes: also called V21H4 antibody alone; AB1C
B2: AB1 with linker 2 (SEQ ID NO:7) (VHH)
VHH: B1 VHH
notes: also called VR2-21; V21 with c-Myc/His6 tail
B3: AB3 with linker 2 (SEQ ID NO:21) (other)
VH: MQVQLVESGGGLIKPGGSLRLSCAASGDMLSYDVMSWVRQAPGKGLEWVSAISSSGGSTYYADSVKGRFTISRDNSKNTVYLQMNSLRAEDTAVYYCVAAPWRCTHDNCSKTRASWGQGTMVTVSSGSEQKLISEEDLNHHHHH
notes: also called VR2-801-45; V45 with c-Myc/His5 tail
B4: VEGFR3/Fc (R&D Systems) (Fc fusion)
chain: YSMTPPTLNITEESHVIDTGDSLSISCRGQHPLEWAWPGAQEAPATGDKDSEDTGVVRDCEGTDARPYCKVLLLHEVHANDTGSYVCYYKYIKARIEGTTAASSYVFVRDFEQPFINKPDTLLVNRKDAMWVPCLVSIPGLNVTLRSQSSVLWPDGQEVVWDDRRGMLVSTPLLHDALYLQCETTWGDQDFLSNPFLVHITGNELYDIQLLPRKSLELLVGEKLVLNCTVWAEFNSGVTFDWDYPGKQAERGKWVPERRSQQTHTELSSILTIHNVSQHDLGSYVCKANNGIQRFRESTEVIVHENPFISVEWLKGPILEATAGDELVKLPVKLAAYPPPEFQWYKDGKALSGRHSPHALVLKEVTEASTGTYTLALWNSAAGLRRNISLELVVNVPPQIHEKEASSPSIYSRHSRQALTCTAYGVPLPLSIQWHWRPWTPCKMFAQRSLRRRQQQDLMPQCRDWRAVTTQDAVNPIESLDTWTEFVEGKNKTVSKLVIQNANVSAMYKCVVSNKVGQDERLIYFYVTTIPDGFTIESKPSEELLEGQPVLLSCQADSYKYEHLRWYRLNLSTLHDAHGNPLLLDCKNVHLFATPLAASLEEVAPGARHATLSLSIPRVAPEHEGHYVCEVQDRRSHDKHCHKKYLSVQALEAPRLTQNLTDLLVNVSDSLEMQCLVAGAHAPSIVWYKDERLLEEKSGVDLADSNQKLSIQRVREEDAGRYLCSVCNAKGCVNSSASVAVEGSEDKGSMEI
notes: not shown: Fc part, captured by goat anti-human IgG-Fc; not described further
B5: AB2 with linker 2 (SEQ ID NO:13) (other)
VH: MQVQLVESGGGLIKPGGSLRLSCAASGFRFSAESMTWVRQAPGKGLEWVSAISSSGGSTYYADSVKGRFTISRDNSKNTVYLQMNSLRAEDTAVYYCVRSPKGCTHASCSWNSGSWGQGTLVTVSSGSEQKLISEEDLNHHHHH
notes: also called VR2-801-18; V18 with c-Myc/His5 tail
B6: human VEGFR-2/Fc (R&D Systems) (Fc fusion)
chain: ASVGLPSVSLDLPRLSIQKDILTIKANTTLQITCRGQRDLDWLWPNNQSGSEQRVEVTECSDGLFCKTLTIPKVIGNDTGAYKCFYRETDLASVIYVYVQDYRSPFIASVSDQHGVVYITENKNKTVVIPCLGSISNLNVSLCARYPEKRFVPDGNRISWDSKKGFTIPSYMISYAGMVFCEAKINDESYQSIMYIVVVVGYRIYDVVLSPSHGIELSVGEKLVLNCTARTELNVGIDFNWEYPSSKHQHKKLVNRDLKTQSGSEMKKFLSTLTIDGVTRSDQGLYTCAASSGLMTKKNSTFVRVHEKPFVAFGSGMESLVEATVGERVRIPAKYLGYPPPEIKWYKNGIPLESNHTIKAGHVLTIMEVSERDTGNYTVILTNPISKEKQSHVVSLVVYVPPQIGEKSLISPVDSYQYGTTQTLTCTVYAIPPPHHIHWYWQLEEECANEPSQAVSVTNPYPCEEWRSVEDFQGGNKIEVNKNQFALIEGKNKTVSTLVIQAANVSALYKCEAVNKVGRGERVISFHVTRGPEITLQPDMQPTEQESVSLWCTADRSTFENLTWYKLGPQPLPIHVGELPTPVCKNLDTLWKLNATMFSNSTNDILIMELKNASLQDQGDYVCLAQDRKTKKRHCVVRQLTVLERVAPTITGNLENQTTSIGESIEVSCTASGNPPPQIMWFKDNETLVEDSGIVLKDGNRNLTIRRVRKEDEGLYTCQACSVLGCAKVEAFFIIEGAQEKTNLE
notes: also called recombinant VEGFR2/Fc; VEGFR/Fc; not shown: Fc part of the bought fusion; It was captured by goat anti-human IgG-Fc in the ELISA
B7: AB4 with linker 2 (SEQ ID NO:27) (VHH)
VHH: QVKLEESGGGLVQAGGSLRLSCAASGGTASSYAMGWFRQAPGKEREFVAAISRSGGNTDYVDSAKGRFTISRDDAKNTVSLQMNSLRLEDTAVYYCAARYAGTWPNDAGTVYWLPPNYNYWGQGTQVTVSS
notes: also called VR2-38; V38 with c-Myc/His6 tail

Assay [1] addresses B6. The experiment in a line: ELISA, VEGFR2/Fc captured by anti-human IgG-Fc, biotin-V21H4 detected with streptavidin-AP; antibody alone, not conjugated.
Assay [2] has as its target B6. The experiment in a line: ELISA, VEGFR2/Fc captured on anti-human IgG-Fc, biotinylated antibody detected with streptavidin-alkaline phosphatase.
The target in assay [3] is T1, human VEGFR2 (KDR) expressed on 293/KDR cells (human, UniProt P35968 20-1356). The assay can be described thus: flow cytometry on 293/KDR cells, S/N against the biotin-isotype control.
Assay [4] has as its target T1, human VEGFR2 (KDR) expressed on 293/KDR …. The assay can be described thus: flow cytometry on 293/KDR cells, detected with PE-streptavidin.
For assay [5], the target named is T2, mouse VEGFR-2/Fc (R&D Systems) (mouse, UniProt P35918 20-762).
T2 construct: not shown: Fc part of the bought fusion, not described
T2 sequence (P35918 20-762 limits assumed): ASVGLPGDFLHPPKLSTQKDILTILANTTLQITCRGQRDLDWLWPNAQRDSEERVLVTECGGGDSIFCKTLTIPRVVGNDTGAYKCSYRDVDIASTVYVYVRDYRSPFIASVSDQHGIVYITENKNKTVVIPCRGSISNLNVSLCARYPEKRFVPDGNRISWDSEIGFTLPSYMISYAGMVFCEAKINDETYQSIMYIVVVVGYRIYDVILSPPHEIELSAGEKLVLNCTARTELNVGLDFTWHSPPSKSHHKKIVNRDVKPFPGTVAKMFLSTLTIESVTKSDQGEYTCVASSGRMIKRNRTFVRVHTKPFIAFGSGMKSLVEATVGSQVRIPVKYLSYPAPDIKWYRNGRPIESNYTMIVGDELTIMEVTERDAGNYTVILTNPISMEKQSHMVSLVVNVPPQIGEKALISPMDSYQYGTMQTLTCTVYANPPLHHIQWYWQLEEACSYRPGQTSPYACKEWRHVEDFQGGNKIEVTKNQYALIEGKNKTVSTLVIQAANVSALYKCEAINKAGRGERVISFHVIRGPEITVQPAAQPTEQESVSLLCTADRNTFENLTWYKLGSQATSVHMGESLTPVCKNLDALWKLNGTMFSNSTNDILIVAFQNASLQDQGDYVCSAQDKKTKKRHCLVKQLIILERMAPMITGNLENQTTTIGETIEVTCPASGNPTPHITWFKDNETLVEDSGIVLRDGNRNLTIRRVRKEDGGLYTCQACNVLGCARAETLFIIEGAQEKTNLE
The experiment in a line: SPR (Biacore 3000), immobilized mouse VEGFR-2/Fc.

Assay [6] deals with B6. The experiment in a line: SPR (Biacore 3000), sdAb monomer over amine-coupled human VEGFR-2/Fc, 25 C; constants estimated from transformed data (FIG. 3).
The target of assay [7] is B6. The assay can be described thus: SPR (Biacore 3000), sdAb monomer over amine-coupled human VEGFR-2/Fc, 25 C.
For assay [8], the target named is T3, AB2 (SEQ ID NO:13)-DOS47 antibody-urease conjugate (jack bean (Canavalia ensiformis), UniProt P07374 1-840).
T3 construct: also called AB2-DOS47
T3 sequence (P07374 whole entry): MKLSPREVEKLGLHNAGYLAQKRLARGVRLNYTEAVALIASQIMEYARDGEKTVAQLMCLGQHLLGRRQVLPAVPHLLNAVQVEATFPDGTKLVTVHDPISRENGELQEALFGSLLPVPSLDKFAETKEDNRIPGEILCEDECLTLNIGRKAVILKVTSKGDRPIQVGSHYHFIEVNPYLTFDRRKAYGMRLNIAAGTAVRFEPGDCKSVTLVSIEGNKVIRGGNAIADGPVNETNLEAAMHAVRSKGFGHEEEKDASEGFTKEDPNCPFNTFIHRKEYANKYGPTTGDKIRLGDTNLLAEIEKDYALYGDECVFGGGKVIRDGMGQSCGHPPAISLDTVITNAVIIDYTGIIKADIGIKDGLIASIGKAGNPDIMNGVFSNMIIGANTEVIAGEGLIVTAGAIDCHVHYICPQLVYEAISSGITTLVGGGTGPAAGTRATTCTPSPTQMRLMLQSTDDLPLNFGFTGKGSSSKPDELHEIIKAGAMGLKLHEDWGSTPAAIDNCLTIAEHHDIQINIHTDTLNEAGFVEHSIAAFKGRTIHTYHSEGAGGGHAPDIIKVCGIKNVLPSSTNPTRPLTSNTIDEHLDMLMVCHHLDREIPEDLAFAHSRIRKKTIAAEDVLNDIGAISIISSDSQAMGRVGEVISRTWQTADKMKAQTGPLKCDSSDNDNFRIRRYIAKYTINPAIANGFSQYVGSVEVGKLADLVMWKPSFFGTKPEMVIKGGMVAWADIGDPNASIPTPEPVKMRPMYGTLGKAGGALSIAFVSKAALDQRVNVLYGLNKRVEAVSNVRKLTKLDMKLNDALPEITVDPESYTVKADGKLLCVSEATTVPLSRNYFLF
The assay can be described thus: ELISA, VEGFR3/Fc captured by anti-human IgG-Fc, conjugate detected with anti-urease.

Assay [9] addresses T4, AB4 (SEQ ID NO:27)-DOS47 antibody-urease conjugate (jack bean (Canavalia ensiformis), UniProt P07374 1-840).
T4 construct: also called AB4-DOS47
The description is as above.

Assay [10] concerns the target T5, AB1m (SEQ ID NO:9)-DOS47 antibody-urease conjugate (jack bean (Canavalia ensiformis), UniProt P07374 1-840).
T5 construct: also called AB1-DOS47
The assay is described as above.

Assay [11] addresses T6, AB3m (SEQ ID NO:23)-DOS47 antibody-urease conjugate (jack bean (Canavalia ensiformis), UniProt P07374 1-840).
T6 construct: also called AB3-DOS47
Described as above.

For assay [12], the target named is T7, V21H4-DOS47 with 6.6 antibodies per urease (Canavalia ensiformis, UniProt P07374).
T7 construct: subunit of the homohexameric enzyme
The assay can be described thus: ELISA, VEGFR2/Fc captured on anti-human IgG-Fc, conjugate detected with anti-urease.

Assay [13] concerns the target T8, V21H4-DOS47 with 7.2 antibodies per urease (Canavalia ensiformis, UniProt P07374).
T8 construct: subunit of the homohexameric enzyme
The description is as above.

Assay [14] concerns the target T9, V21H4-DOS47 with 5.1 antibodies per urease (Canavalia ensiformis, UniProt P07374).
T9 construct: subunit of the homohexameric enzyme
The assay is described as above.

The target of assay [15] is V21H4-DOS47 with 1.4 antibodies per urease (jack bean (Canavalia ensiformis), UniProt P07374 1-840). Described as above.
In assay [16] the target is V21H4-DOS47 with 3.3 antibodies per urease (jack bean (Canavalia ensiformis), UniProt P07374 1-840). The assay is described as above.
For assay [17], the target named is V21H4-DOS47 with 9.4 antibodies per urease (jack bean (Canavalia ensiformis), UniProt P07374 1-840). The description is as above.
Assay [18] has as its target V21H4-DOS47 with 2.3 antibodies per urease (jack bean (Canavalia ensiformis), UniProt P07374 1-840). The description is as above.
In assay [19] the target is T10, V21H4-DOS47 with 8.7 antibodies per urease (Canavalia ensiformis, UniProt P07374).
T10 construct: subunit of the homohexameric enzyme
The assay is described as above.

Assay [20] concerns the target V21H1-DOS47 (V21H1, SEQ ID NO:3, conjugated to urease through SM(PEG)2) (jack bean (Canavalia ensiformis), UniProt P07374 1-840). Described as above.
Assay [21] addresses T11, V21H4-DOS47 (V21H4, SEQ ID NO:6, conjugated to urease through BM(PEG)2) (jack bean (Canavalia ensiformis), UniProt P07374 1-840).
T11 construct: also called V21-DOS47
The description is as above.

The target in assay [22] is T3, AB2 (SEQ ID NO:13)-DOS47 …. The experiment in a line: ELISA, urease conjugates on VEGFR2/Fc.
Assay [23] has as its target T4, AB4 (SEQ ID NO:27)-DOS47 …. The experiment in a line: ELISA, urease conjugates on VEGFR2/Fc.
Assay [24] concerns the target T5, AB1m (SEQ ID NO:9)-DOS47 …. The assay can be described thus: ELISA, urease conjugates on VEGFR2/Fc.
Assay [25] has as its target T6, AB3m (SEQ ID NO:23)-DOS47 …. The experiment in a line: ELISA, urease conjugates on VEGFR2/Fc.

T5 sequence (VHH, as listed by the source limits assumed, chain 1 of 2): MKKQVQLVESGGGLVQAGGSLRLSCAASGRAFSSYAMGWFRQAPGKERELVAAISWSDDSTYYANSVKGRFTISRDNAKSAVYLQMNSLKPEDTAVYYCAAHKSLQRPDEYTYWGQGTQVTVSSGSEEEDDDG
T5 sequence (P07374 whole entry, chain 2 of 2): as the sequence (P07374 whole entry) above
T6 sequence (VH, as listed by the source limits assumed, chain 1 of 2): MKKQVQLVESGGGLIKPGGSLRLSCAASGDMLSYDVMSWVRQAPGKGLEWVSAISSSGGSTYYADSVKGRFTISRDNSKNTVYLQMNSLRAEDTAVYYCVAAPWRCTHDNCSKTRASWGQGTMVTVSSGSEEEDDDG
T6 sequence (P07374 whole entry, chain 2 of 2): as the sequence (P07374 whole entry) above
T4 sequence (VHH, as listed by the source limits assumed, chain 1 of 2): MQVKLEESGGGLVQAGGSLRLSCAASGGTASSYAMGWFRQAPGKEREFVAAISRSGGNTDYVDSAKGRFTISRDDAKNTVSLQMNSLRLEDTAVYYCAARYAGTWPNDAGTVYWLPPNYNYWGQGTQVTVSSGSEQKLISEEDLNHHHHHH
T4 sequence (P07374 whole entry, chain 2 of 2): as the sequence (P07374 whole entry) above

With B1, the EC50 in assay [1] came to 1.8 nM; in assay [4] it was 1.6 nM. The “EC50 (read off the curve)” value in assay [2] and in assay [3] was ~2 nM throughout.

B2: the binding result in assay [5] is reported as “no binding (tested: 150-200 nM)”. In addition, in assay [6], the Kd was ~80 nM, the dissociation rate constant (koff) is < 0.01 s⁻¹ and the kon was ~60000 M⁻¹ s⁻¹.

In [7], B3 displayed a Kd of 900 nM, a koff of 0.045 s⁻¹ and a kon of 53000 M⁻¹ s⁻¹. The binding result in [5] was “no binding (tested: 150-200 nM)”.

As for B4, the binding result in [8], in assay [9], in [10] and in [11] was “no binding” in each case.

In assay [7], B5 gave a Kd of 500 nM, a koff of 0.02 s⁻¹ and a kon of 46000 M⁻¹ s⁻¹. Also, the binding result in assay [5] is “no binding (tested: 150-200 nM)”.

For the molecule B6, the binding result in [12], in assay [13], in assay [14], in assay [15], in [16] and in [17] was “binds” throughout. Further, the binding result in [18], in [19], in [20], in [21], in assay [22] and in assay [23] was “binds” throughout. The binding result in assay [24] and in assay [25] was “binds” each time.

With B7, in assay [5], the binding result is given as “no binding (tested: 150-200 nM)”.

The record behind these values is patent US20180244784A1 (published 2018).
